From the supplement of paper PMC9732359
± gives the uncertainty stated by the source.

Test: protein stability index of a GFP-peptide fusion (yeast GPS) (PSI 1-4); higher = more stable; sorted into four equal gates, so the index is relative within each strain
Conditions: ubr1∆
Outline: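 Tiled yeast protein peptides of 17 residues were each joined downstream of GFP, on plasmids that also express Cherry. The pooled library was maintained in yeast, and mid-log cultures in leucine-free medium were sorted into four equal gates on the GFP/Cherry ratio. Plasmids from every gate were amplified by PCR and sequenced on Illumina, with barcodes linking reads to strains. The protein stability index of a peptide is its gate-number-weighted read frequency summed over the gates.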

Compared with NFTSPTAVVNNAAPANV [SWI1], NGALDPKMGVSSSSLEC [RPO31] is higher in protein stability index: 2.91 ± 0.053 for the first, 3.21 ± 0.047 for the second.

Compared with NGCSGADVKGVCTEAGM [RPT6], NGDLTVSLCAKNMGLVP [SSN2] is lower in protein stability index: 3.1 ± 0.11 for the first, 2.17 ± 0.087 for the second.

First: NGEEIVGFWKDDGDDED [MTR3]
Second: NGITLALIDAGISMFDY [SKI6]
The protein stability index of the first is higher: 3.45 ± 0.087 for the first, 1.56 ± 0.038 for the second.

Compared with NGKDNNNESNKNNNGDE [MED2], NGKIWVKCEELSNTLAC [RRP40] is higher in protein stability index: 3.15 ± 0.035 for the first, 3.6 ± 0.16 for the second.

NGLLNEISRLKTSLSIK [SMC2] and NGNLTSNQLISNYAASN [SWI1] are within error of each other in protein stability index: 3.11 ± 0.15 for the first, 3.1 ± 0.055 for the second.

Compared with NGVNVQIDQLNRLLPNL [GRR1], NHFSLSYKDSGLWGFST [COR1] is higher in protein stability index: 2.91 ± 0.04 for the first, 3.02 ± 0.054 for the second.

Going from NHWRQNKGRAVYINPSG [BRR2] to NIATQQNMQQSLQQMQH [GAL11], the protein stability index falls from 3.16 ± 0.1 to 2.86 ± 0.069.

First: NIDTITDAMTESQPKQT [MCD1]
Second: NIKLLNNRMGSYDCTGV [POP1]
The protein stability index of the first is higher: 3.32 ± 0.087 for the first, 3 ± 0.042 for the second.

Compared with NIKSSISNGNLATGPNL [YOR098C/NUP1], NILWRIADKTTYDKETI [SIR4] is higher in protein stability index: 2.89 ± 0.065 for the first, 3.17 ± 0.052 for the second.

NIMSASGGLFGNQQQQL [YGL172W/NUP49] and NINAKMETRINILLRER [YIL149C/MLP2] are within error of each other in protein stability index: 3.2 ± 0.042 for the first, 3.15 ± 0.1 for the second.

First: NIPWDVPGMPAPIKKII [PRP8]
Second: NISKSRAKPVTNSSILL [RRP6]
The protein stability index of the first is higher: 3.05 ± 0.2 for the first, 2.38 ± 0.097 for the second.

Going from NISRDFQSYIVSSLPGS [COR1] to NIVNDFTPEEEAAIRRE [SKP1], the protein stability index rises from 1.85 ± 0.048 to 3.02 ± 0.086.

Going from NKEMHTDLGKDIPFFPS [SSN2] to NKIDQSLQYIERQQDEL [YJL041W/NSP1], the protein stability index rises from 2.76 ± 0.055 to 2.93 ± 0.061.

First: NKLSSILQNEHDYWNKI [SRB4]
Second: NKSISDEITEDMFEMSD [SSN2]
The protein stability index of the first is lower: 2.47 ± 0.043 for the first, 3.1 ± 0.05 for the second.

Going from NKYQYSLKQYAGNLITT [SRP68] to NLCGDISLEALNFYITN [SIR3], the protein stability index rises from 1.54 ± 0.06 to 2.74 ± 0.032.

Going from NLDFDPRDVIKGKDFEI [FAS1] to NLDNLQKVSQLESADKQ [POP4], the protein stability index falls from 3.46 ± 0.1 to 2.86 ± 0.18.

NLEFDSTNHPDYDVSKK [SRP14] and NLENMSIQDTSTVAKNV [YCG1] are within error of each other in protein stability index: 3.15 ± 0.065 for the first, 3.21 ± 0.041 for the second.

First: NLFGATANANKPAFSFG [YJL041W/NSP1]
Second: NLKQANNVAYGKKRFRV [SMC4]
The protein stability index of the first is higher: 3.12 ± 0.057 for the first, 2.31 ± 0.054 for the second.

First: NLPILKNHFRKHWQERV [RPL13A]
Second: NLRHERNSLETKLTTCK [YIL149C/MLP2]
The protein stability index of the first is lower: 1.87 ± 0.089 for the first, 3.04 ± 0.077 for the second.

Compared with NMFELAQQLVGVYKRDN [SMC4], NMFGDYSNEPFNTNFDD [SNF6] is higher in protein stability index: 1.37 ± 0.13 for the first, 2.85 ± 0.045 for the second.

Going from NMGMNNMNNGGKELDSL [PGD1] to NMMEHWDYLQLTVAMYI [RPO31], the protein stability index falls from 3.24 ± 0.082 to 1.85 ± 0.063.

First: NMVSLRGRNDTLERVHL [GRR1]
Second: NNDKREIQEELERFNKR [SMC1]
The protein stability index of the first is lower: 2.73 ± 0.096 for the first, 3.27 ± 0.068 for the second.

Going from NNDQKRQQAYKTAQTLD [YJL041W/NSP1] to NNHNDSNRLHPPDIHPN [GRR1], the protein stability index falls from 3.23 ± 0.047 to 2.77 ± 0.035.

NNMLYPREDKENNRLLF [RPB9] and NNNDNDANRNANNIVNI [GRR1] are within error of each other in protein stability index: 3.25 ± 0.22 for the first, 3.04 ± 0.045 for the second.

First: NNNDNNNSNTVASSTNF [SWI1]
Second: NNNETSKPAFSFGAKSD [YJL041W/NSP1]
The protein stability index of the first is lower: 3.021 ± 0.028 for the first, 3.61 ± 0.29 for the second.

Going from NNNNNNNNNSTRPQMPS [GRR1] to NNNPLQQQSSQNTVPNV [GAL11], the protein stability index falls from 3.027 ± 0.018 to 2.82 ± 0.03.

First: NNPDMMIQPPQQGQNMS [ROX3]
Second: NNSAPNNTNNANSSITP [YJL041W/NSP1]
The protein stability index of the first is higher: 3.14 ± 0.14 for the first, 2.72 ± 0.11 for the second.

Compared with NNSGNDNNNTTNNDSNN [MED2], NNTVDPGFDEFQLIDMK [CSI1] is higher in protein stability index: 3.092 ± 0.03 for the first, 3.21 ± 0.041 for the second.

Compared with NNVAYGKKRFRVVTVDG [SMC4], NPEEVEQVAEEAAAAEE [RPS0B] is higher in protein stability index: 1.83 ± 0.069 for the first, 3.26 ± 0.071 for the second.

Going from NPYNTRSNKIKVVKTPG [RPL34A] to NQFLKIKKKRKELFEKT [SMC1], the protein stability index rises from 2.15 ± 0.039 to 3.29 ± 0.16.

Compared with NQIPVTEHSKVTRFDEK [SRB6], NQLLAALVAYTPTDVIG [RRP6] is lower in protein stability index: 2.87 ± 0.048 for the first, 1.24 ± 0.032 for the second.

First: NQNICTSVTRRSPVFAL [GRR1]
Second: NQQQQNQQPQQQQQQQQ [SWI1]
The protein stability index of the first is lower: 1.74 ± 0.031 for the first, 2.83 ± 0.032 for the second.

Going from NQSNLNGGNNTQQPGTN [SNF2] to NRAMEYDALLSINVHSN [RET1], the protein stability index falls from 3.04 ± 0.056 to 2.68 ± 0.045.

NRLLPNLPEEERKQIHE [GRR1] and NRSNDALIKFMEYHISN [FAS2] are within error of each other in protein stability index: 2.59 ± 0.13 for the first, 2.45 ± 0.057 for the second.

First: NSAIIQNLRKELLIYKK [YIL149C/MLP2]
Second: NSASSAPTPAAPGASVP [SWI1]
The protein stability index of the first is higher: 3.14 ± 0.053 for the first, 3.03 ± 0.055 for the second.

NSDLEFNTFWDEKGNEI [ARP9] and NSISDFLGEQVNEPTKN [RPN1] are within error of each other in protein stability index: 3.34 ± 0.077 for the first, 3.18 ± 0.091 for the second.

First: NSISSQPASYHSVQETN [SSN2]
Second: NSIYCPTQTVAELDLMS [RPN6]
The protein stability index of the first is higher: 2.69 ± 0.052 for the first, 1.53 ± 0.074 for the second.

First: NSKPEKSSDSNDSNPSF [YLR335W/NUP2]
Second: NSQERVQDLGSAISVTN [SIR2]
The protein stability index of the first is lower: 2.76 ± 0.036 for the first, 3.25 ± 0.19 for the second.

Going from NSRNAIRKLVKNGTIVK [RPL19A] to NSSKYYINEKESSYTEV [SMC4], the protein stability index falls from 2.79 ± 0.066 to 1.89 ± 0.11.

NSSNYFGELQFAFLNAM [AAR2] and NSSRFSDPMLQRTATLC [YCS4] are within error of each other in protein stability index: 2.89 ± 0.054 for the first, 3.02 ± 0.078 for the second.

Going from NSSTSSTSNTPSPPNVI [YDL088C/ASM4] to NSTGHSSNTNNNTNNNN [SWI1], the protein stability index rises from 3.06 ± 0.043 to 3.33 ± 0.063.

NTAAALVSLLDENDSKK [YAR002W/NUP60] and NTAPGLGNTVSTQPSFA [YGR119C/NUP57] are within error of each other in protein stability index: 3.01 ± 0.099 for the first, 3.04 ± 0.056 for the second.

Going from NTDLKDIIQGNPLMYSG [PCI8] to NTIRQNVTSSGDHNKLR [YML103C/NUP188], the protein stability index falls from 3.2 ± 0.086 to 2.98 ± 0.097.

First: NTLVRPNGTKKAYVRLT [RPL25]
Second: NTSESLLVDIQKYNQIQ [SMC2]
The protein stability index of the first is higher: 3.35 ± 0.15 for the first, 1.68 ± 0.048 for the second.

NTSFSFTKPPANETDKR [YOR098C/NUP1] and NTTQDNGGDKELEMIGG [YCS4] are within error of each other in protein stability index: 3.15 ± 0.045 for the first, 3.26 ± 0.23 for the second.

NTTTYKSRPDRPKPVSP [SNF5] and NVAKNMKTPSLTVYLEP [RPO21] are within error of each other in protein stability index: 2.97 ± 0.042 for the first, 3 ± 0.1 for the second.

Compared with NVEPTENAYKSENAPSA [YAR002W/NUP60], NVFHGLCAGANNPKIQT [IRR1] is lower in protein stability index: 3.03 ± 0.12 for the first, 1.56 ± 0.073 for the second.

Going from NVGKPDQSIASGNTNGA [YOR098C/NUP1] to NVKEITEKLKISPESVF [SMC3], the protein stability index falls from 2.93 ± 0.1 to 2.04 ± 0.052.

Going from NVLDYFAESPFFDKTSN [MED6] to NVNETMSRSLANGIINV [SMC3], the protein stability index falls from 3.04 ± 0.051 to 2.73 ± 0.057.

NVPSTKFNAAPEENATE [SNF12] and NVRDDMKPSDNISTNTN [SSN2] are within error of each other in protein stability index: 3.12 ± 0.055 for the first, 3.04 ± 0.053 for the second.

First: NVRMDTMANILYYPQKP [RPB2]
Second: NVSIVANYIKERTKNAQ [SMC4]
The protein stability index of the first is lower: 2.99 ± 0.1 for the first, 3.18 ± 0.061 for the second.

Compared with NVSSNIVKNAEQHNLVK [RPS20], NVTETYSVYLIHEIRLN [SIR3] is lower in protein stability index: 3.07 ± 0.061 for the first, 2.37 ± 0.066 for the second.

NVYRVTVHKTFEGNVAT [PRP8] and NVYVGMTDMQIQWYKSL [ISW2] are within error of each other in protein stability index: 3.33 ± 0.15 for the first, 3.14 ± 0.069 for the second.

With NVYVLPKNLLKKFIEIS [PRP8] the protein stability index was 1.79 ± 0.048.
